Paper doi:10.1101/2022.09.01.506260 (bioRxiv, 2022)
Square brackets hold non-standard residues; d marks the D form. pT = C[C@@H](OP(=O)(O)O)[C@H](N)C(=O)O; pS = N[C@@H](COP(=O)(O)O)C(=O)O

B6: PEAK3^tandem peptide, non-phosphorylated (residues 54-74) (peptide)
peptide: Ac-PLPPPLPKKILTRTQSLPTRR-NH2
B7: CrkII NSH3 domain (CrkII^NSH3) (domain or fragment)
chain: AEYVRALFDFNGNDEEDLPFKKGDILRIRDKPEEQWWNAEDSEGKRGMIPVPYVEKYR

Key:
SEC [1] = target: the molecule itself; assay: SEC
SEC [2] = target: the molecule itself; assay: SEC; remark: listed apart in the source
SEC-MALS = target: the molecule itself; assay: SEC-MALS
[3] = target: B7; assay: SPR
human 14-3-3ε = target: T1, human 14-3-3ε (human, UniProt P62258-1 1-255); assay: SPR
T1 sequence: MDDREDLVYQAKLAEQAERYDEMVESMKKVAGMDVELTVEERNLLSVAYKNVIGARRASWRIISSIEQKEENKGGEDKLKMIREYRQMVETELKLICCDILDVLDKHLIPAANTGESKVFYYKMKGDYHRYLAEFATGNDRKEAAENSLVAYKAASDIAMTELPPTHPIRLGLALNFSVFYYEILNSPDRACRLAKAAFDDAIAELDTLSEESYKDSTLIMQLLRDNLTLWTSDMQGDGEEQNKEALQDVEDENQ

[4] = target: B6; assay: ITC

B1: CrkII SH2-NSH3 construct lacking the CSH3 domain (CrkII^ΔCSH3) (domain or fragment)
chain: MAGNFDSEERSSWYWGRLSRQEAVALLQGQRHGVFLVRDSSTSPGDYVLSVSENSRVSHYIINSSGPRPPVPPSPAQPPPGVSPSRLRIGDQEFDSLPALLEFYKIHYLDTTTLIEPVSRSRQGSGVILRQEEAEYVRALFDFNGNDEEDLPFKKGDILRIRDKPEEQWWNAEDSEGKRGMIPVPYVEKYRPASASVSALIGGNQEGSHPQPLGGPEPGPYAQPSVNT
SEC [1]
  stoichiometry N: 2

B2: CrkII SH2 domain (CrkII^SH2) (domain or fragment)
chain: DSEERSSWYWGRLSRQEAVALLQGQRHGVFLVRDSSTSPGDYVLSVSENSRVSHYIINSSGPRPPVPPSPAQPPPGVSPSRLRIGDQEFDSLPALLEFYKIHYLDTTTLIEPVSR
SEC [1]
  stoichiometry N: 2

B3: PEAK1^IDR1 (N-terminally truncated PEAK1, residues 1082-1746) (domain or fragment)
chain: LPELEREDGKEDISDPMDPNPCSATYSNLGQSRAAMIPPKQPRQPKGAVDDAIAFGGKTDQEAPNASQPTPPPLPKKMIIRANTEPISKDLQKSMESSLCVMANPTYDIDPNWDASSAGSSISYELKGLDIESYDSLERPLRKERPVPSAANSISSLTTLSIKDRFSNSMESLSSRRGPSCRQGRGIQKPQRQALYRGLENREEVVGKIRSLHTDALKKLAVKCEDLFMAGQKDQLRFGVDSWSDFRLTSDKPCCEAGDAVYYTASYAKDPLNNYAVKICKSKAKESQQYYHSLAVRQSLAVHFNIQQDCGHFLAEVPNRLLPWEDPDDPEKDEDDMEETEEDAKGETDGKNPKPCSEAASSQKENQGVMSKKQRSHVVVITREVPCLTVADFVRDSLAQHGKSPDLYERQVCLLLLQLCSGLEHLKPYHVTHCDLRLENLLLVHYQPGGTAQGFGPAEPSPTSSYPTRLIVSNFSQAKQKSHLVDPEILRDQSRLAPEIITATQYKKCDEFQTGILIYEMLHLPNPFDENPELKEREYTRADLPRIPFRSPYSRGLQQLASCLLNPNPSERILISDAKGILQCLLWGPREDLFQTFTACPSLVQRNTLLQNWLDIKRTLLMIKFAEKSLDREGGISLEDWLCAQYLAFATTDSLSCIVKILQHR
SEC [2]
  stoichiometry N: 2

B4: PEAK2^IDR1 (N-terminally truncated PEAK2, residues 802-1406) (domain or fragment)
chain: EDVSPSGPQQPPPLPQKKIVSRAASSPDGFFWTQGSPKPGTASPKLNLSHSETNVHDESHFSYSLSPGNRHHPVFSSSDPLEKAFKGSGHWLPAAGLAGNRGGCGSPGLQCKGAPSASSSQLSVSSQASTGSTQLQLHGLLSNISSKEGTYAKLGGLYTQSLARLVAKCEDLFMGGQKKELHFNENNWSLFKLTCNKPCCDSGDAIYYCATCSEDPGSTYAVKICKAPEPKTVSYCSPSVPVHFNIQQDCGHFVASVPSSMLSSPDAPKDPVPALPTHPPAQEQDCVVVITREVPHQTASDFVRDSAASHQAEPEAYERRVCFLLLQLCNGLEHLKEHGIIHRDLCLENLLLVHCTLQAGPGPAPAPAPAPAPAAAAPPCSSAAPPAGGTLSPAAGPASPEGPREKQLPRLIISNFLKAKQKPGGTPNLQQKKSQARLAPEIVSASQYRKFDEFQTGILIYELLHQPNPFEVRAQLRERDYRQEDLPPLPALSLYSPGLQQLAHLLLEADPIKRIRIGEAKRVLQCLLWGPRRELVQQPGTSEEALCGTLHNWIDMKRALMMMKFAEKAVDRRRGVELEDWLCCQYLASAEPGALLQSLKLLQLL
modifications: phosphorylation of the tandem site 14-3-3 motif (RAASSP, first S of SS underlined) found by proteomic analysis
SEC [2]
  stoichiometry N: 2

B5: full length recombinant PEAK3 (PEAK3^FL) from insect cells (natural protein)
chain: MSSPEPPTEPPEPDNPTWSTQPTYSNLGQIRAHLLPSKACRLRTPGSLSTNPEPLPPPLPKKILTRTQSLPTRRTLHPSSIQVQPPRRPFLGSHSVDKSQAAVGPACLPAELTFGPADAPLGLSLRDLHSPEAVHTALAARQLQGLRTIYARLRARLMGGHPGPCHPGHSFRLLDSSPCAESGDALYYRVVRAHEDAWHILVAKVPKPGADVPHPWGLELQASLSPHFNLQGLCGLVPEGTLPGAPWRGAVALAAEVPERTVAQWLAEACTQPPEEFVWAVALLLLQLSAALKFLEAWGAALVELRPENLLLVAPRGCATTGPPRLLLTDFGRVCLQPPGPPGSPGPHAPQLGSLLRALLSLAAPSTTPLAAGLELLAAQLTRLRPSASRTRGALQALLWGPGPELRGRGAPLGPWLRALGPWLRVRRGLLVLRLAERAAGGEAPSLEDWLCCEYLAEATESSMGQALALLWD
modifications: phosphoserine at 69 (pS69)
SEC-MALS
  stoichiometry N: 2

## Ac-PLPPPLPKKILTR-NH2 [PEAK3 54-66 proline-rich motif peptide]
[3]
  binding result: binds

## Ac-PLPPPLPKKILTRTQ[pS]LPTRR-NH2 [PEAK3^tandem-pS69 phosphopeptide (residues 54-74)]
Human 14-3-3ε
  binding result: binds

## Ac-PPPLPKKMIIRAN[pT]EPISKD-NH2 [PEAK1^tandem-pT1165 phosphopeptide (residues 1152-1171)]
Human 14-3-3ε
  binding result: binds

## Ac-PPPLPQKKIVSRAA[pS]SPDGF-NH2 [PEAK2^tandem-pS826 phosphopeptide (residues 812-831)]
Human 14-3-3ε
  binding result: binds

## Ac-PTPPPLPKKMIIR-NH2 [PEAK1 1150-1162 proline-rich motif peptide]
[3]
  binding result: binds

## B6
[3]
  Kd: 0.6 µM

## Ac-QPPPLPQKKIVSR-NH2 [PEAK2 809-821 proline-rich motif peptide]
[3]
  binding result: binds

## B7
[4]
  KD after pre-saturating the peptide with 14-3-3ɣ: 0.7 µM

## Ac-FSPPPPPPKSRHL-NH2 [PEAK2 709-721 proline-rich motif peptide]
[3]
  Kd: 13 µM
